Measured values: paper PMC11260452, “Cooperative Gsx2–DNA binding requires DNA bending and a novel Gsx2 homeodomain interface”
Changes are numbered by the printed parent chain.

How the values were obtained:
Gsx1HD [1] = molecular target: T1, Gsx1HD (Mus musculus, UniProt P31315 146-207); assay: ITC; K 2.4 ± 0.9 x10^7 M-1; N 0.97; ITC: 50 mM sodium phosphate pH 6.5, 150 mM NaCl, 20 C; EMSA: 35 nM probe, 15 min room temperature, buffer as in cited ref 31; details: protein: recombinant; 5' overhang 1 nt on each strand
Gsx2HD [2] = molecular target: T2, Gsx2HD (Mus musculus, UniProt P31316 203-264); assay: ITC; K 2.8 ± 1.4 x10^7 M-1; N 0.98; ITC: 50 mM sodium phosphate pH 6.5, 150 mM NaCl, 20 C; EMSA: 35 nM probe, 15 min room temperature, buffer as in cited ref 31; details: protein: recombinant; tags: N-terminal His-tag, cleaved with PreScission; chain copies: 2; 5' overhang 1 nt on each strand
Gsx2 167-305 [3] = molecular target: T3, Gsx2 167-305 (Mus musculus, UniProt P31316 167-305); assay: ITC; K 0.7 ± 0.2 x10^7 M-1; N 0.94; ITC: 50 mM sodium phosphate pH 6.5, 150 mM NaCl, 20 C; EMSA: 35 nM probe, 15 min room temperature, buffer as in cited ref 31; details: protein: recombinant; tags: N-terminal His-tag, cleaved with PreScission; chain copies: 2; 5' overhang 1 nt on each strand
Gsx2HD I234E = Gsx2HD I234E (Mus musculus, UniProt P31316 203-264, I234E); assay: ITC; K 5.1 ± 4.2 x10^7 M-1; N 1.05; Fig S6 isotherm 14.7 nM; ITC: 50 mM sodium phosphate pH 6.5, 150 mM NaCl, 20 C; EMSA: 35 nM probe, 15 min room temperature, buffer as in cited ref 31; details: protein: recombinant; tags: N-terminal His-tag, cleaved with PreScission; 5' overhang 1 nt on each strand
Gsx1HD [4] = molecular target: T1, Gsx1HD; assay: ITC; K 5.5 ± 0.8 x10^7 M-1; N 0.96; ITC: 50 mM sodium phosphate pH 6.5, 150 mM NaCl, 20 C; EMSA: 35 nM probe, 15 min room temperature, buffer as in cited ref 31; details: protein: recombinant; 5' overhang 1 nt on each strand
Gsx2 167-305 [5] = molecular target: T3, Gsx2 167-305; assay: ITC; K 1.3 ± 0.6 x10^7 M-1; N 0.85; ITC: 50 mM sodium phosphate pH 6.5, 150 mM NaCl, 20 C; EMSA: 35 nM probe, 15 min room temperature, buffer as in cited ref 31; details: protein: recombinant; tags: N-terminal His-tag, cleaved with PreScission; chain copies: 2; 5' overhang 1 nt on each strand
Gsx2HD [6] = molecular target: T2, Gsx2HD; assay: ITC; K 6.8 ± 4.2 x10^7 M-1; N 1.02; ITC: 50 mM sodium phosphate pH 6.5, 150 mM NaCl, 20 C; EMSA: 35 nM probe, 15 min room temperature, buffer as in cited ref 31; details: protein: recombinant; tags: N-terminal His-tag, cleaved with PreScission; chain copies: 2; 5' overhang 1 nt on each strand
Gsx2HD S212E [7] = molecular target: T4, Gsx2HD S212E (Mus musculus, UniProt P31316 203-264, S212E); assay: EMSA; binds equally to WT; little to no cooperativity; ITC: 50 mM sodium phosphate pH 6.5, 150 mM NaCl, 20 C; EMSA: 35 nM probe, 15 min room temperature, buffer as in cited ref 31; details: protein: recombinant; tags: N-terminal His-tag, cleaved with PreScission; label: 5' IRDye700 on complementary strand (linker S14); blunt
Gsx2HD L231E [8] = molecular target: T5, Gsx2HD L231E (Mus musculus, UniProt P31316 203-264, L231E); assay: as above; details: protein: recombinant; tags: N-terminal His-tag, cleaved with PreScission; label: 5' IRDye700 on complementary strand (linker S14); blunt
Gsx2HD L216E [9] = molecular target: T6, Gsx2HD L216E (Mus musculus, UniProt P31316 203-264, L216E); assay: as above; details: protein: recombinant; tags: N-terminal His-tag, cleaved with PreScission; label: 5' IRDye700 on complementary strand (linker S14); blunt
Gsx2 167-305 [10] = molecular target: T3, Gsx2 167-305; assay: EMSA; similar free probe depletion, lower cooperativity; ITC: 50 mM sodium phosphate pH 6.5, 150 mM NaCl, 20 C; EMSA: 35 nM probe, 15 min room temperature, buffer as in cited ref 31; details: protein: recombinant; tags: N-terminal His-tag, cleaved with PreScission; chain copies: 2; label: 5' IRDye700 on complementary strand (linker S14); blunt
Gsx2HD S212E [11] = molecular target: T4, Gsx2HD S212E; assay: EMSA; binds; reduced cooperativity; ITC: 50 mM sodium phosphate pH 6.5, 150 mM NaCl, 20 C; EMSA: 35 nM probe, 15 min room temperature, buffer as in cited ref 31; details: protein: recombinant; tags: N-terminal His-tag, cleaved with PreScission; label: 5' IRDye700 on complementary strand (linker S14); blunt
Gsx2HD L231E [12] = molecular target: T5, Gsx2HD L231E; assay: as above; details: protein: recombinant; tags: N-terminal His-tag, cleaved with PreScission; label: 5' IRDye700 on complementary strand (linker S14); blunt
Gsx2HD L216E [13] = molecular target: T6, Gsx2HD L216E; assay: as above; details: protein: recombinant; tags: N-terminal His-tag, cleaved with PreScission; label: 5' IRDye700 on complementary strand (linker S14); blunt

T3 sequence (P31316 167-305): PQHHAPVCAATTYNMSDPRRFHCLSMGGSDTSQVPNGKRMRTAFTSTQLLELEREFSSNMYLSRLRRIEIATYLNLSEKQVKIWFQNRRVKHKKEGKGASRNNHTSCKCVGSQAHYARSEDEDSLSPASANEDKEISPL
T1 sequence (P31315 146-207): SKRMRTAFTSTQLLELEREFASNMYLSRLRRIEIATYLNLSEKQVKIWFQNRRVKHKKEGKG
T4 sequence (P31316 203-264 S212E): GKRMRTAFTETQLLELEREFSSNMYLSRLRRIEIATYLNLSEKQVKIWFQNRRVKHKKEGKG
T5 sequence (P31316 203-264 L231E): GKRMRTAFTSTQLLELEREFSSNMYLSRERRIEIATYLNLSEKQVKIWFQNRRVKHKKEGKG
T2 sequence (P31316 203-264): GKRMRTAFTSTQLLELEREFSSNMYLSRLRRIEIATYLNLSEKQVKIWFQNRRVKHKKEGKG
T6 sequence (P31316 203-264 L216E): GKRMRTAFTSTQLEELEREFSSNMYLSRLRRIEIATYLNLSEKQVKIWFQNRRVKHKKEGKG
Gsx2HD I234E, sequence (P31316 203-264 I234E): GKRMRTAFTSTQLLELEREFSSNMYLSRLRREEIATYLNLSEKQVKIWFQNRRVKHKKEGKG

B1: TAATGG 15-mer (Common Q50 site) (dsDNA)
DNA 1: TGAGCTAATGGAAGC
DNA 2: AGCTTCCATTAGCTC
Kd (Gsx1HD [1]): 42 nM | Kd (Gsx2HD [2]): 36 nM | Kd (Gsx2 167-305 [3]): 143 nM

B2: TAATTA consensus 15-mer (dsDNA)
DNA 1: TGAGCTAATTAAAGC
DNA 2: AGCTTTAATTAGCTC
Kd (Gsx2HD I234E): 20 nM | Kd (Gsx1HD [4]): 18 nM | Kd (Gsx2 167-305 [5]): 77 nM | Kd (Gsx2HD [6]): 15 nM

B3: 8bpS dimer probe (dsDNA)
DNA 1: TCCAACTAATTAAAGATTTAATTCGTAGTGCGGGCGTGGCT
DNA 2: AGCCACGCCCGCACTACGAATTAAATCTTTAATTAGTTGGA
binding result (Gsx2HD S212E [7]): binds | binding result (Gsx2HD L231E [8]): binds | binding result (Gsx2HD L216E [9]): binds

B4: GCGGG spacer dimer probe (dsDNA)
DNA 1: TCCAACTAATTAGCGGGTAATTCGTAGTGCGGGCGTGGCT
DNA 2: AGCCACGCCCGCACTACGAATTACCCGCTAATTAGTTGGA
cooperativity factor (tau) (Gsx2 167-305 [10]): 12.6 tau cooperativity factor (mean of 3 G/C spacer probes)

B5: GCCGG spacer dimer probe (dsDNA)
DNA 1: B4 DNA 1 with G15C
DNA 2: B4 DNA 2 with C26G
cooperativity factor (tau) (Gsx2 167-305 [10]): 12.6 tau cooperativity factor (mean of 3 G/C spacer probes)

B6: 7bpS / AAATT spacer dimer probe (dsDNA)
DNA 1: B4 DNA 1 with G13A, C14A, G15A, G16T, G17T
DNA 2: B4 DNA 2 with C24A, C25A, C26T, G27T, C28T
binding result (Gsx2HD S212E [11]): binds | binding result (Gsx2HD L231E [12]): binds | binding result (Gsx2HD L216E [13]): binds

B7: GGGCC spacer dimer probe (dsDNA)
DNA 1: B4 DNA 1 with C14G, G16C, G17C
DNA 2: B4 DNA 2 with C24G, C25G, G27C
cooperativity factor (tau) (Gsx2 167-305 [10]): 12.6 tau cooperativity factor (mean of 3 G/C spacer probes)
